Biological target: the molecule itself
Assay: SEC; gel filtration (Superdex-200) in 10 mM Na-acetate/50 mM NaCl/10% glycerol/0.05% DDM pH 5; oligomer judged from the elution position

B1: CusC, the outer membrane component of the Cus heavy metal efflux pump (natural protein, E. coli, UniProt P77211 18-457, looked up)
chain: CSLAPDYQRPAMPVPQQFSLSQNGLVNAADNYQNAGWRTFFVDNQVKTLISEALVNNRDLRMATLKVQEARAQYRLTDADRYPQLNGEGSGSWSGNLKGNTATTREFSTGLNASFDLDFFGRLKNMSEAERQNYLATEEAQRAVHILLVSNVAQSYFNQQLAYAQLQIAEETLRNYQQSYAFVEKQLLTGSSNVLALEQARGVIESTRSDIAKRQGELAQANNALQLLLGSYGKLPQAQTVNSDSLQSVKLPAGLSSQILLQRPDIMEAEHALMAANANIGAARAAFFPSISLTSGISTASSDLSSLFNASSGMWNFIPKIEIPIFNAGRNQANLDIAEIRQQQSVVNYEQKIQNAFKEVADALALRQSLNDQISAQQRYLASLQITLQRARALYQHGAVSYLEVLDAERSLFATRQTLLDLNYARQVNEISLYTALGGG
modifications: three partial acyl chains attached to Cys1 (most likely triacylated at the N-terminal cysteine with N-acyl and S-diacylglycerol functions)
notes: CusC of Escherichia coli, gene for the full-length protein amplified from DH5alpha cells; residues 21-31 disordered in the crystal. numbers count on: the mature protein; Hexa-histidine tag introduced after the C-terminal residue; no cleavage is described; also called outer membrane factor (OMF) protein CusC; source: E. coli C43 (DE3), over-expressed, purified from membranes (nickel column, …)
B1 was tested. Which “stoichiometry N” value did it give?
Its value is 3.

Source: article PMC3017539, “Crystal Structure of Escherichia coli CusC, the Outer Membrane Component of a Heavy Metal Efflux Pump” (PLoS ONE, 2011)
